B1: Complement factor H-related protein 5 (Homo sapiens), Q9BXR6 (parent)
chain: MLLLFSVILISWVSTVGGEGTLCDFPKIHHGFLYDEEDYNPFSQVPTGEVFYYSCEYNFVSPSKSFWTRITCTEEGWSPTPKCLRMCSFPFVKNGHSESSGLIHLEGDTVQIICNTGYSLQNNEKNISCVERGWSTPPICSFTKGECHVPILEANVDAQPKKESYKVGDVLKFSCRKNLIRVGSDSVQCYQFGWSPNFPTCKGQVRSCGPPPQLSNGEVKEIRKEEYGHNEVVEYDCNPNFIINGPKKIQCVDGEWTTLPTCVEQVKTCGYIPELEYGYVQPSVPPYQHGVSVEVNCRNEYAMIGNNMITCINGIWTELPMCVATHQLKRCKIAGVNIKTLLKLSGKEFNHNSRIRYRCSDIFRYRHSVCINGKWNPEVDCTEKREQFCPPPPQIPNAQNMTTTVNYQDGEKVAVLCKENYLLPEAKEIVCKDGRWQSLPRCVESTAYCGPPPSINNGDTTSFPLSVYPPGSTVTYRCQSFYKLQGSVTVTCRNKQWSEPPRCLDPCVVSEENMNKNNIQLKWRNDGKLYAKTGDAVEFQCKFPHKAMISSPPFRAICQEGKFEYPICE
partner: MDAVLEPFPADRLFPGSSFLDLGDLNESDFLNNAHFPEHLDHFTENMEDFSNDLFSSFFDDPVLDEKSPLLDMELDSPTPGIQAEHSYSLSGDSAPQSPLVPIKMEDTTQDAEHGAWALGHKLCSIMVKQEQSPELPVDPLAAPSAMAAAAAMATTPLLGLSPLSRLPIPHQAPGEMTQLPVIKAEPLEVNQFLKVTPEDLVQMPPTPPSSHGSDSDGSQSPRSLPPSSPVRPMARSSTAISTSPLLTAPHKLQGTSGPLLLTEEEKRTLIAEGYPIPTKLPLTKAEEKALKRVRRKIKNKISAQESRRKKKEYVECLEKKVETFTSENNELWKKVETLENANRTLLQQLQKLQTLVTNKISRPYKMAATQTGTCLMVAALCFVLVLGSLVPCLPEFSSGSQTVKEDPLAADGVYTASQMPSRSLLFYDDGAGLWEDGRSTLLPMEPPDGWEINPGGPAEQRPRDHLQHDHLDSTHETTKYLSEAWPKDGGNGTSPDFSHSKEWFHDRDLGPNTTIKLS
B2: Phospholamban (Homo sapiens), P26678 (parent)
chain: MEKVQYLTRSAIRRASTIEMPQQARQKLQNLFINFCLILICLLLICIIVMLL
partner: B1 partner
B3: Proton-coupled zinc antiporter SLC30A8 (Homo sapiens), Q8IWU4 (parent)
chain: MEFLERTYLVNDKAAKMYAFTLESVELQQKPVNKDQCPRERPEELESGGMYHCHSGSKPTEKGANEYAYAKWKLCSASAICFIFMIAEVVGGHIAGSLAVVTDAAHLLIDLTSFLLSLFSLWLSSKPPSKRLTFGWHRAEILGALLSILCIWVVTGVLVYLACERLLYPDYQIQATVMIIVSSCAVAANIVLTVVLHQRCLGHNHKEVQANASVRAAFVHALGDLFQSISVLISALIIYFKPEYKIADPICTFIFSILVLASTITILKDFSILLMEGVPKSLNYSGVKELILAVDGVLSVHSLHIWSLTMNQVILSAHVATAASRDSQVVRREIAKALSKSFTMHSLTIQMESPVDQDPDCLFCEDPCD
partner: B1 partner
B4: EF-hand domain-containing protein 1 (Homo sapiens), Q5JVL4 (parent)
chain: MVSNPVHGLPFLPGTSFKDSTKTAFHRSQTLSYRNGYAIVRRPTVGIGGDRLQFNQLSQAELDELASKAPVLTYGQPKQAPPADFIPAHVAFDKKVLKFDAYFQEDVPMSTEEQYRIRQVNIYYYLEDDSMSVIEPVVENSGILQGKLIKRQRLAKNDRGDHYHWKDLNRGINITIYGKTFRVVDCDQFTQVFLESQGIELNPPEKMALDPYTELRKQPLRKYVTPSDFDQLKQFLTFDKQVLRFYAIWDDTDSMYGECRTYIIHYYLMDDTVEIREVHERNDGRDPFPLLMNRQRVPKVLVENAKNFPQCVLEISDQEVLEWYTAKDFIVGKSLTILGRTFFIYDCDPFTRRYYKEKFGITDLPRIDVSKREPPPVKQELPPYNGFGLVEDSAQNCFALIPKAPKKDVIKMLVNDNKVLRYLAVLESPIPEDKDRRFVFSYFLATDMISIFEPPVRNSGIIGGKYLGRTKVVKPYSTVDNPVYYGPSDFFIGAVIEVFGHRFIILDTDEYVLKYMESNAAQYSPEALASIQNHVRKREAPAPEAESKQTEKDPGVQELEALIDTIQKQLKDHSCKDNIREAFQIYDKEASGYVDRDMFFKICESLNVPVDDSLVKELIRMCSHGEGKINYYNFVRAFSN
partner: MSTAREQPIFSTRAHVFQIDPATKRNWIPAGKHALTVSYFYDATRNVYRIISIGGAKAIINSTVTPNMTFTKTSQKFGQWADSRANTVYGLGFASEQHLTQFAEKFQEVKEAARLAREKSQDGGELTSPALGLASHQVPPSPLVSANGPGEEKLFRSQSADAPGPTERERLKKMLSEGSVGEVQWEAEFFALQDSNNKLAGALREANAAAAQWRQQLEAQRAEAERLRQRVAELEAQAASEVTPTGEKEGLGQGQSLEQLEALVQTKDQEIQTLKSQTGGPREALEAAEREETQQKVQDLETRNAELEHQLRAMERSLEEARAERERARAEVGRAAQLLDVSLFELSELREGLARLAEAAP
B5: Beta-crystallin A4 (Homo sapiens), P53673 (parent)
chain: MTLQCTKSAGPWKMVVWDEDGFQGRRHEFTAECPSVLELGFETVRSLKVLSGAWVGFEHAGFQGQQYILERGEYPSWDAWGGNTAYPAERLTSFRPAACANHRDSRLTIFEQENFLGKKGELSDDYPSLQAMGWEGNEVGSFHVHSGAWVCSQFPGYRGFQYVLECDHHSGDYKHFREWGSHAPTFQVQSIRRIQQ
partner: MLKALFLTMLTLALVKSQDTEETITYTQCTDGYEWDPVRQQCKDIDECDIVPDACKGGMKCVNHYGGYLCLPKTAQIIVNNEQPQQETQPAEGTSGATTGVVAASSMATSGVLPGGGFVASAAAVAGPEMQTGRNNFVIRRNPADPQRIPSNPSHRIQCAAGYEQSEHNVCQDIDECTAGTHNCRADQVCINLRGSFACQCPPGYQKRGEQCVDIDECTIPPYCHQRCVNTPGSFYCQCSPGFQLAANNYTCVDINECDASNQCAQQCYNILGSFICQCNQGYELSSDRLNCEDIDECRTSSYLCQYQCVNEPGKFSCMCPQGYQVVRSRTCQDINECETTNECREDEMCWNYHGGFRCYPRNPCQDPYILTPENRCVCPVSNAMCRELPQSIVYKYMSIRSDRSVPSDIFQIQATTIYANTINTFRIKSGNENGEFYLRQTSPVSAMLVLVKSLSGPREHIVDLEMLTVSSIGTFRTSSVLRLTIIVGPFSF
B6: U4/U6 small nuclear ribonucleoprotein Prp31 (Homo sapiens), Q8WWY3 (parent)
chain: MSLADELLADLEEAAEEEEGGSYGEEEEEPAIEDVQEETQLDLSGDSVKTIAKLWDSKMFAEIMMKIEEYISKQAKASEVMGPVEAAPEYRVIVDANNLTVEIENELNIIHKFIRDKYSKRFPELESLVPNALDYIRTVKELGNSLDKCKNNENLQQILTNATIMVVSVTASTTQGQQLSEEELERLEEACDMALELNASKHRIYEYVESRMSFIAPNLSIIIGASTAAKIMGVAGGLTNLSKMPACNIMLLGAQRKTLSGFSSTSVLPHTGYIYHSDIVQSLPPDLRRKAARLVAAKCTLAARVDSFHESTEGKVGYELKDEIERKFDKWQEPPPVKQVKPLPAPLDGQRKKRGGRRYRKMKERLGLTEIRKQANRMSFGEIEEDAYQEDLGFSLGHLGKSGSGRVRQTQVNEATKARISKTLQRTLQKQSVVYGGKSTIRDRSSGTASSVAFTPLQGLEIVNPQAAEKKVAEANQKYFSSMAEFLKVKGEKSGLMST
partner: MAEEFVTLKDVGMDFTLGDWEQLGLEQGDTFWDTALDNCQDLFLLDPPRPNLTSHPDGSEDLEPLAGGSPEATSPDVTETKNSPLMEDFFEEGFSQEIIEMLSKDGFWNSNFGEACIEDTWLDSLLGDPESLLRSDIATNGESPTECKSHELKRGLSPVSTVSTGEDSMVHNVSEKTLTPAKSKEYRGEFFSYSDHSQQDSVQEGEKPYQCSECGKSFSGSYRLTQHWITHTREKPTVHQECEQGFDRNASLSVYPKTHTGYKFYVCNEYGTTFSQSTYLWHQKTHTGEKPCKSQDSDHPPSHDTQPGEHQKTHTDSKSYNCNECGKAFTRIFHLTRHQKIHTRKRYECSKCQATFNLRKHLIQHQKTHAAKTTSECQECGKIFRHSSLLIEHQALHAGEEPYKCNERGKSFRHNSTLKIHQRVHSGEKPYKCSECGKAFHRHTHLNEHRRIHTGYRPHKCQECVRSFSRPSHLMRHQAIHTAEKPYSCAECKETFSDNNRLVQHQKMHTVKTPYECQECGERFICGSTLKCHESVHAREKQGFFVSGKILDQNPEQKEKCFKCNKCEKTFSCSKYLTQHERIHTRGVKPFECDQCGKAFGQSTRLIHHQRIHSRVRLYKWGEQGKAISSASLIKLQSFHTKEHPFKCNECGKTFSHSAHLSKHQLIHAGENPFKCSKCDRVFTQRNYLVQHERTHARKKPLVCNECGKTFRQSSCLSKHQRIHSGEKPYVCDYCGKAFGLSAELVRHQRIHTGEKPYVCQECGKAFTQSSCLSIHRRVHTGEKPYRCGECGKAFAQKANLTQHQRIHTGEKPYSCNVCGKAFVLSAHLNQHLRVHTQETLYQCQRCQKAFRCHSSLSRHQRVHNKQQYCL
B7: DNA ligase 4 (Homo sapiens), P49917 (parent)
chain: MAASQTSQTVASHVPFADLCSTLERIQKSKGRAEKIRHFREFLDSWRKFHDALHKNHKDVTDSFYPAMRLILPQLERERMAYGIKETMLAKLYIELLNLPRDGKDALKLLNYRTPTGTHGDAGDFAMIAYFVLKPRCLQKGSLTIQQVNDLLDSIASNNSAKRKDLIKKSLLQLITQSSALEQKWLIRMIIKDLKLGVSQQTIFSVFHNDAAELHNVTTDLEKVCRQLHDPSVGLSDISITLFSAFKPMLAAIADIEHIEKDMKHQSFYIETKLDGERMQMHKDGDVYKYFSRNGYNYTDQFGASPTEGSLTPFIHNAFKADIQICILDGEMMAYNPNTQTFMQKGTKFDIKRMVEDSDLQTCYCVFDVLMVNNKKLGHETLRKRYEILSSIFTPIPGRIEIVQKTQAHTKNEVIDALNEAIDKREEGIMVKQPLSIYKPDKRGEGWLKIKPEYVSGLMDELDILIVGGYWGKGSRGGMMSHFLCAVAEKPPPGEKPSVFHTLSRVGSGCTMKELYDLGLKLAKYWKPFHRKAPPSSILCGTEKPEVYIEPCNSVIVQIKAAEIVPSDMYKTGCTLRFPRIEKIRDDKEWHECMTLDDLEQLRGKASGKLASKHLYIGGDDEPQEKKRKAAPKMKKVIGIIEHLKAPNLTNVNKISNIFEDVEFCVMSGTDSQPKPDLENRIAEFGGYIVQNPGPDTYCVIAGSENIRVKNIILSNKHDVVKPAWLLECFKTKSFVPWQPRFMIHMCPSTKEHFAREYDCYGDSYFIDTDLNQLKEVFSGIKNSNEQTPEEMASLIADLEYRYSWDCSPLSMFRRHTVYLDSYAVINDLSTKNEGTRLAIKALELRFHGAKVVSCLAEGVSHVIIGEDHSRVADFKAFRRTFKRKFKILKESWVTDSIDKCELQEENQYLI

Variants of: B1
Details: with cr3l1_human CREB3L1, Q96BA8
K144N was tested, and the “effect of a mutation on the interaction” value was “with no effect”.
With G145E the “effect of a mutation on the interaction” value was “with no effect”.
In the case of F192L, the “effect of a mutation on the interaction” value is reported as “with no effect”.
With R356H the “effect of a mutation on the interaction” value was “with no effect”.
In the case of M514R, the “effect of a mutation on the interaction” value is reported as “with no effect”.

Variants of: B2
Details: with cr3l1_human CREB3L1, Q96BA8
R9C was tested, and the “effect of a mutation on the interaction” value was “with no effect”.

Variants of: B3
Details: with cr3l1_human CREB3L1, Q96BA8
With R325Q the “effect of a mutation on the interaction” value was “with no effect”.
R325W was tested, and the “effect of a mutation on the interaction” value was “disrupting interaction strength”.

Variants of: B4
Details: with home3_human HOMER3, Q9NSC5
For A394S, the “effect of a mutation on the interaction” value was “disrupting interaction strength”.
R221H was tested, and the “effect of a mutation on the interaction” value was “disrupting interaction strength”.
M448T was tested, and the “effect of a mutation on the interaction” value was “with no effect”.
In the case of P77T, the “effect of a mutation on the interaction” value is reported as “disrupting interaction strength”.
R159W was tested, and the “effect of a mutation on the interaction” value was “with no effect”.
For T508R, the “effect of a mutation on the interaction” value was “with no effect”.

Variants of: B5
Details: with fbln3_human EFEMP1, Q12805
In the case of V36M, the “effect of a mutation on the interaction” value is reported as “disrupting interaction strength”.
In the case of L69P, the “effect of a mutation on the interaction” value is reported as “disrupting interaction strength”.
With F94S the “effect of a mutation on the interaction” value was “disrupting interaction strength”.

Variants of: B6
Details: with zn473_human ZNF473, Q8WTR7
For L107V, the “effect of a mutation on the interaction” value was “with no effect”.

Variants of: B7
Details: with xrcc4_human XRCC4, Q13426
Sequence of xrcc4_human XRCC4, Q13426 (Q13426 whole entry): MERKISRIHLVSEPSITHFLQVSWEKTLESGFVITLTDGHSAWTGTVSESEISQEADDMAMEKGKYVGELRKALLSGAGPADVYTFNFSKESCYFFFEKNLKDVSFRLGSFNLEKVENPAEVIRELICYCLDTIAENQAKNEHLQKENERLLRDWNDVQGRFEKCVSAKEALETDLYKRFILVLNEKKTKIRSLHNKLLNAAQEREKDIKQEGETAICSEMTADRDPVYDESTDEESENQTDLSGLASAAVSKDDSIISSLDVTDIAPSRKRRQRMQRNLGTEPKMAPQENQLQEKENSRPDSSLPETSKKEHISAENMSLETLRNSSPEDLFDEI
For A3V, the “effect of a mutation on the interaction” value was “disrupting interaction strength”.
With T9I the “effect of a mutation on the interaction” value was “with no effect”.

— IntAct's records for PubMed 25910212
